The source of these data is paper PMC2665219 (Nucleic Acids Research, 2009).

Holding throughout (experiment): EMSA
In general terms: Mobility shift assays separate free from complexed probe on a gel.

The target in data set [1] is T1, EbfC N77A (Borrelia burgdorferi, UniProt O51418 1-99, N77A).
T1 sequence: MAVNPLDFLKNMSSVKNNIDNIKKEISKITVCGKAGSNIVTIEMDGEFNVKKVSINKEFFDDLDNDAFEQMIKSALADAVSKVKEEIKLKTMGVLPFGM

Data set [2] has as its target T2, EbfC D78A (Borrelia burgdorferi, UniProt O51418 1-99, D78A).
T2 sequence: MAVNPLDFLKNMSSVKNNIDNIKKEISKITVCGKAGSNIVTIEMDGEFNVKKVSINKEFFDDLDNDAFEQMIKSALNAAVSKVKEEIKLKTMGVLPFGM

Data set [3] addresses T3, EbfC K88A (Borrelia burgdorferi, UniProt O51418 1-99, K88A).
T3 sequence: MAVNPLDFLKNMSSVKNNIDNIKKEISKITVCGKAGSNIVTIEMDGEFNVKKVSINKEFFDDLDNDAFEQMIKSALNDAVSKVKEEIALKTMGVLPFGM

The target of data set [4] is T4, EbfC K84A (Borrelia burgdorferi, UniProt O51418 1-99, K84A).
T4 sequence: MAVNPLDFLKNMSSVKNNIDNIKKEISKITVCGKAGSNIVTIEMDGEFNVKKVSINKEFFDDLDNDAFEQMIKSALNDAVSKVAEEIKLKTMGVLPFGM

The target in data set [5] is T5, EbfC K23A (Borrelia burgdorferi, UniProt O51418 1-99, K23A).
T5 sequence: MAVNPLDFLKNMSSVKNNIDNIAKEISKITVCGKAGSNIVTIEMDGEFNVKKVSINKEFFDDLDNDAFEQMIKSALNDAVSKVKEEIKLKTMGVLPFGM

The target in data set [6] is T6, EbfC D20A (Borrelia burgdorferi, UniProt O51418 1-99, D20A).
T6 sequence: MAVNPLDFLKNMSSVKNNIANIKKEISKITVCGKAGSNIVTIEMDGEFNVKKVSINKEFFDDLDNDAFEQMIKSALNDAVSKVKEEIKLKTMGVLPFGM

The target in data set [7] is T7, EbfC K82A (Borrelia burgdorferi, UniProt O51418 1-99, K82A).
T7 sequence: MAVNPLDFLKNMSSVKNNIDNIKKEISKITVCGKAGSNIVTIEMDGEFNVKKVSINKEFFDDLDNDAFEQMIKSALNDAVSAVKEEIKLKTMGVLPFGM

The target of data set [8] is T8, EbfC K16A (Borrelia burgdorferi, UniProt O51418 1-99, K16A).
T8 sequence: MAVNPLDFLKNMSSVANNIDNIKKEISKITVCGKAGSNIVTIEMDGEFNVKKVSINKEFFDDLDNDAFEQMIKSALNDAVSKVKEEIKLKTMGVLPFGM

In data set [9] the target is T9, EbfC E85A (Borrelia burgdorferi, UniProt O51418 1-99, E85A).
T9 sequence: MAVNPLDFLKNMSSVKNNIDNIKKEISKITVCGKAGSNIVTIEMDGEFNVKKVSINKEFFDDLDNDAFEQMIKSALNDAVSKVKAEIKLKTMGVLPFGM

Data set [10] has as its target T10, EbfC (Borrelia burgdorferi, UniProt O51418 1-99).
T10 sequence: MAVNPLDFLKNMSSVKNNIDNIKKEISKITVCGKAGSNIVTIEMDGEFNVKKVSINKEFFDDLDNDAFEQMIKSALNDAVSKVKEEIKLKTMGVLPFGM

In data set [11] the target is T10, EbfC. This is another data set of the same source.

Like-named read-outs stand apart in the source and are kept apart here.

B1: b-WT (dsDNA)
DNA 1: TTGTAATGAGTAGTGCATTTGCAATGGAGAGATTTTGGGGAGTTGTTTAAAATTACATTTGCGTTTTGTTAAAATGTAACAGCTGAATGTAACAAAATTATATATTTAAATCTTTGAAATATTGC
DNA 2: GCAATATTTCAAAGATTTAAATATATAATTTTGTTACATTCAGCTGTTACATTTTAACAAAACGCAAATGTAATTTTAAACAACTCCCCAAAATCTCTCCATTGCAAATGCACTACTCATTACAA
With B1, the binding result in data set [1], in data set [2], in data set [3], in data set [4], in [5] and in data set [6] was “no binding” in each case. Also, the binding result in [7], in data set [8] and in [9] was “no binding” in each case. Moreover, the Kd is 313 nM in [10] and 388 ± 108 nM in data set [11].

The Kd is the concentration at which binding is half-saturated.
